From patent US8828940B2, “Method of treating an ischemia-reperfusion injury-related disorder by administering GPCR ligands” (priority 2006, dated 2014)
Read-outs that look alike come from different tables or passages of the source. No end group written: not given here.

Legend:
FPRL1 = target: T1, FPRL1 (Homo sapiens, UniProt P25090); assay: Calcium flux in FPRL1-transfected CHO-K1 cells; assay type: cell-based; design: expressed in transfected cells; host or cells: CHO-K1 (ATCC-CCL-61), transient co-transfection; settings: for calcium flux (P58 family): dose response, FPRL1 transfected CHO cells; for ability to induce calcium flux (P33 family): 0.1, 1, 10, 100, 1000, 10000 nM
T1 sequence (P25090 1-351): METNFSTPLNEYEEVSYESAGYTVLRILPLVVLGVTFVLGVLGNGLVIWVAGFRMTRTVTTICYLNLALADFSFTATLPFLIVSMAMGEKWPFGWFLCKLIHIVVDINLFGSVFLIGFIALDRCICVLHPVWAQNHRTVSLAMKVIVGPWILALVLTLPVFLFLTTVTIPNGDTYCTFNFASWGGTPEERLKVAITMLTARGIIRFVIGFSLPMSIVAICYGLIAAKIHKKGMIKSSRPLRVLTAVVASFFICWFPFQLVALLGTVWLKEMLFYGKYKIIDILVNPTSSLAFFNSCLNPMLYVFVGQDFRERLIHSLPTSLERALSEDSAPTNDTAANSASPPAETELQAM
Protocol: (§1) The assay was carried out in CHO cells were transiently transfected with the GPCR of choice, by utilizing the promiscuous Gα16 to divert signaling to the Gq pathway, thus enabling readout of GPCR activation by testing for Calcium flux as described by Liu et al 2003 (Biomol Screen 8, 39-49).
(§2) All the peptides thus obtained were tested for their ability to change calcium flux in CHO-K1 cells (ATCC-CCL-61) transiently co-transfected with an expression vector containing the GPCR of choice and expression vector containing the Gα16 encoding cDNA. Expression constructs containing cDNA clones for MrgX1, MrgX2, Mas or FPRL1 were commercially obtained in one of the following expression vectors: pcDNA3.1, pCMV6, or MO2.
(§3) Transient transfections were performed using CHO-K1 cells as host cells. Cells (12 million) were plated into T75 flasks on the day preceding transfection. Cells were transfected with the appropriate GPCR expression vector and with a vector expressing Gα16 using a lipid-based reagent, MTI, according to the manufacturer's recommendation. Cells were transfected for 5 hours, then re-plated into 96-well dishes (60,000 cells per well) and grown overnight.
On the day of the experiment, cells were loaded with Fluo-4-NW (Invitrogen) according to the manufacturer's recommendation. Plates were loaded into a FlexStation™ (Molecular Devices) plate reader and fluorescence was monitored. […] Each 96 well plate contained cells transfected with one GPCR expression vector and each of the examined peptides was tested in triplicate.
(§4) We defined a hit as a peptide which elicited a clear and distinct increase in intracellular calcium that is clearly visible and statistically significant upon examination of the calcium trace for at least two repeats. The criterion for statistical significance was a p-value lower than 0.001 in a t-test comparing the levels of calcium before and after peptide addition.
The ability of Peptides to change calcium flux was examined in CHO-K1 cells co-transfected with FPRL1 and Gα16.
The P33-derived peptides (see FIG. 1): P33_V (SEQ ID NO:7), P33 (SEQ ID NO:6)-mono, P33 (SEQ ID NO:6)-dimer, P33—5 (SEQ ID NO:27), P33—8 (SEQ ID NO:14), P33—9 (SEQ ID NO:15) and P33—10 (SEQ ID NO:16) were tested for their ability to activate FPRL1 using the calcium flux assay in FPRL1-transfected CHO cells. […] The lack of activity of these peptides might be due to reduced potency; insufficient sensitivity of the experimental system, alternative interaction of the receptor, or activation of other pathways, which are not related to calcium flux. Thus, this interaction should be further characterized.

[1] = system: Zymosan-induced murine dorsal air pouch model; assay type: in vivo, mice; settings: 4 h
Protocol: In order to analyze the ability of P58 to exert in vivo effects via the FPRL1 receptor, an acute experimental model of inflammation, the Zymosan-induced murine dorsal air pouch model, was used.
(§5) Male out-bred Swiss albino mice were purchased from Harlan, UK (T.O. strain) and maintained on a standard chow pellet diet with tap water ad libitum and a 12:00 h light /dark cycle. All animals were housed for 7 days prior to experimentation to allow body weight to reach ˜30 g on the day of the experiment.
Drugs were stored at −20° C. and defrosted on the day of the experiment. Peptide P58 was provided lyophilized; it was taken back to room temperature and dissolved with sterile PBS before use to make an initial 1 mg/ml solution. Peptide Ac2-26 (positive control) was also dissolved with sterile PBS before use to make an initial 1 mg/ml solution. Vehicle consisted of sterile pyrogen free PBS (Gibco, cat no. 14190-094). Once dissolved, P58 (SEQ ID NO:1) and Ac2-26 gave a clear solution. Drugs or vehicle were administered i.v. at a final volume of 200-μl, this volume containing the doses described below.
Lavage fluids were kept all the time on ice, then used to determine the number of migrated leukocytes, by taking an aliquot (100 μl) and diluting it 1:10 in Turk's solution (0.01% crystal violet in 3% acetic acid). The samples were then vortexed and 10 μl of the stained cell solution were placed in a Neubauer haematocymometer. Differential cell count was done using a light microscope (Olympus B061). In view of their chromatic characteristics and their nucleus and cytoplasm appearance, polymorphonuclear leukocytes (PMN; >95% neutrophils) could be easily identified.
For FACS analyses, an aliquot of lavage fluid was stained with the PE-conjugated anti-GR-1 monoclonal antibody (1:100 dilution, BD Biosciences; Cat 553128) to mark polymorphonuclear leukocytes. Staining was performed at 4° C.
Flow cytometry was performed using FACScan analyser (Becton Dickinson, Cowley, UK) with air-cooled 100 mW argon laser tuned to 488 nm connected to an Apple Macintosh G3 computer running Cell Quest II software. Forward and sidescatter characteristics were initially used to distinguish between the three distinct cell populations (lymphocytes, monocytes and granulocytes). Cells positive for GR-1 were detected in the FL2 channel (wavelength of 548 nm). Data are expressed as percentage of positive cells (in relation to the specific mAb). Determination of positive and negative populations was performed based on the control staining with irrelevant IgG isotype (rat IgG2b) labelled with PE. Once determined, quadrants were rigorously maintained for all analyses.
Data are shown for single mice, and also shown as mean±S.E. of (n) mice per group. Statistical differences were determined by ANOVA, plus Student Newman Keuls test. A P value <0.05 was taken as significant.
The anti-inflammatory activity of P58 shorter derivatives was tested in the same model of acute inflammation used in Example 6, the Zymosan-induced murine dorsal air pouch model.
as §5, with “˜25” for “˜30”
Drugs were stored at −20° C. and defrosted on the day of the experiment. Peptide P58 (SEQ ID NO:1) was provided lyophilized; it was taken back to room temperature and dissolved with sterile PBS before use to make an initial 1 mg/ml solution. Peptide P58-4 (SEQ ID NO:2) was provided lyophilized; it was taken back to room temperature and dissolved with sterile PBS before use to make an initial 327 μg/ml solution. Peptide P58-5 (SEQ ID NO:3) was provided lyophilized; it was taken back to room temperature and dissolved with sterile PBS before use to make an initial 476 μg/ml solution. […]

Mas receptor = target: T2, Mas receptor (Homo sapiens, UniProt P04201); assay: Calcium flux in Mas-transfected CHO-K1 cells; assay type: cell-based; settings: for ability to induce calcium flux, relative potency (P33 family): 0.1, 1, 10, 100, 1000 and 10000 nM; for ability to induce calcium flux, relative potency (P61 family): dose response, Mas-transfected cells
T2 construct: expressed in transfected cells; host or cells: CHO-K1 (ATCC-CCL-61), transient co-transfection
T2 sequence (P04201 1-325): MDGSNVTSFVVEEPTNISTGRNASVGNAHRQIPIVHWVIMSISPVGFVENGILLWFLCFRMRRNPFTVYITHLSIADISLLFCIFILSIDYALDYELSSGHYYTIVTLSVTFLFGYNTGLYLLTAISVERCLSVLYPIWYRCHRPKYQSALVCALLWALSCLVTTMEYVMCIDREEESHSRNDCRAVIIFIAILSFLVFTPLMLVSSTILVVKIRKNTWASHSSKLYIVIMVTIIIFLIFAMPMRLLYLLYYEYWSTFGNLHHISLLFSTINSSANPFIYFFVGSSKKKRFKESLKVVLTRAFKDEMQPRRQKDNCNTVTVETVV
Protocol: as §1, §2, §3
On the day of the experiment, cells were loaded with Fluo-4-NW (Invitrogen) according to the manufacturer's recommendation. Plates were loaded into a FlexStation™ (Molecular Devices) plate reader and fluorescence was monitored. Seventeen seconds following initiation of reading, cells were stimulated with the indicated agonist/compound at final concentration of 1 μM. Each 96 well plate contained cells transfected with one GPCR expression vector and each of the examined peptides was tested in triplicate.
as §4
Based on dose response experiments, EC50 best fit values were calculated by non-linear regression of sigmoidal dose-response curves, using Prism version 4 (GraphPad Software Inc., San Diego, Calif.). The formulae for the sigmoidal dose-response curves was defined as Y=Bottom+(Top−Bottom)/(1+10^(Log EC50−X)*HillSlope))
The ability of Peptides to change calcium flux was examined in CHO-K1 cells co-transfected with Mas receptor and Gα16.
The P33 monomer and dimer, as well as other P33 derivative peptides were compared for their ability to induce calcium flux in the Mas-transfected cells at 0.1, 1, 10, 100, 1000 and 10000 nM.

| Substance | calcium flux (P58 family) (FPRL1) | ability to induce calcium flux (P33 family) (FPRL1) | ability to induce calcium flux, relative potency (P33 family) (Mas receptor) | also measured |
| --- | --- | --- | --- | --- |
| TIPMFVPESTSKLQ (listed as Homo sapiens) [P58—7] | did not induce calcium flux | – | – | – |
| Ac2-26: a peptide derived from the N-terminus of AnnexinI, known FPRL1 agonist, positive control (AMVSEFLKQAWFIENEEQEYVQTVK) [reference compound] | – | – | – | inhibition of leukocyte accumulation triggered by zymosan A ([1]; Example 6, 200 μg/mouse i.v.): inhibited significantly; inhibition of neutrophil (GR-1+) accumulation triggered by zymosan A ([1]; Example 6, 200 μg/mouse i.v., FACS): 52% |
| HRWSRAVLFPAAHRP (listed as Homo sapiens) [P33—9] | – | failed to induce calcium flux | induced calcium flux, albeit at a somewhat lower degree compared to P33_V | – |
| IYLNRKRRGDPAFKRRLRD (listed as Homo sapiens) [P61—4] | – | – | – | ability to induce calcium flux, relative potency (P61 family) (Mas receptor): somewhat weaker |
| SMCHRWSRAVLFPAAHRP [P33_mono] (listed as Homo sapiens) [Peptide P33_mono] | – | similarly potent | equally potent | – |
| AVLFPAAHRP (listed as Homo sapiens) [P33—5] | – | failed to induce calcium flux | – | – |
| SMCHRWSRAVLFPAAHRP [P33_dimer] (also: disulfide dimer via cysteine; listed as Homo sapiens) [Peptide P33_dimer] | – | – | superior to the monomeric peptides | – |
| FAFLGYSIYLNRKRRGDPAF (listed as Homo sapiens) [P61—11S] | – | – | – | ability to induce calcium flux, relative potency (P61 family) (Mas receptor): as potent as P61_S |
| TIPMFVPESTSTLQKFTSWFM-amide (TIPMFVPESTSTLQKFTSWFM-NH2; listed as Homo sapiens) [P58—10] | elicited calcium flux | – | – | – |
| WSRAVLFPAAHRP (listed as Homo sapiens) [P33—10] | – | failed to induce calcium flux | induced calcium flux, albeit at a somewhat lower degree compared to P33_V | – |
| TIPMFVPESTS (listed as Homo sapiens) [P58—6] | did not induce calcium flux | – | – | – |
| RWSRAVLFPAAHRP (listed as Homo sapiens) [P33—8] | – | failed to induce calcium flux | induced calcium flux, albeit at a somewhat lower degree compared to P33_V | – |
| LQKFTSWFM-amide (LQKFTSWFM-NH2; listed as Homo sapiens) [P58—5] | elicited calcium flux | – | – | inhibition of leukocyte accumulation triggered by zymosan A ([1]; Example 7, 20 nmole/mouse i.v.): did not inhibit leukocyte migration; inhibition of zymosan-induced neutrophil (GR-1+) accumulation ([1]; Example 7, 20 nmole/mouse i.v., FACS): weak effect; inhibition of leukocyte accumulation triggered by zymosan A ([1]; Example 7, 80 nmole/mouse i.v.): 29% |
| TIPMFVPESTSTLQ (listed as Homo sapiens) [P58—12] | did not induce calcium flux | – | – | – |
| FTSWFM-amide (FTSWFM-NH2; listed as Homo sapiens) [P58—4] | elicited calcium flux | – | – | inhibition of leukocyte accumulation triggered by zymosan A ([1]; Example 7, 20 nmole/mouse i.v.): 35%; inhibition of leukocyte accumulation triggered by zymosan A ([1]; Example 7, 80 nmole/mouse i.v.): 47%; inhibition of zymosan-induced neutrophil (GR-1+) accumulation ([1]; Example 7, 80 nmole/mouse i.v., FACS): 49% |
| Angiotensin 1-7 [Ang-(1-7), reference compound] | – | – | – | Ca response (Mas receptor; Mas dose response experiment, data not shown): did not induce Ca response |
